Experimental data reported in patent US10500249B2, “Compositions and methods for preventing or treating diseases, conditions, or processes characterized by aberrant fibroblast proliferation and extracellular matrix deposition” (MOERAE MATRIX, INC., priority 2014, dated 2019).

Tests used:
Experiment in all cases: Kinase Profiling Assay
Assay type in all cases: biochemical
Settings in all cases: 100 μM
PKG1α (h) = molecular target: T1, PKG1α (h) (Homo sapiens, UniProt Q13976)
T1 sequence (Q13976 1-671): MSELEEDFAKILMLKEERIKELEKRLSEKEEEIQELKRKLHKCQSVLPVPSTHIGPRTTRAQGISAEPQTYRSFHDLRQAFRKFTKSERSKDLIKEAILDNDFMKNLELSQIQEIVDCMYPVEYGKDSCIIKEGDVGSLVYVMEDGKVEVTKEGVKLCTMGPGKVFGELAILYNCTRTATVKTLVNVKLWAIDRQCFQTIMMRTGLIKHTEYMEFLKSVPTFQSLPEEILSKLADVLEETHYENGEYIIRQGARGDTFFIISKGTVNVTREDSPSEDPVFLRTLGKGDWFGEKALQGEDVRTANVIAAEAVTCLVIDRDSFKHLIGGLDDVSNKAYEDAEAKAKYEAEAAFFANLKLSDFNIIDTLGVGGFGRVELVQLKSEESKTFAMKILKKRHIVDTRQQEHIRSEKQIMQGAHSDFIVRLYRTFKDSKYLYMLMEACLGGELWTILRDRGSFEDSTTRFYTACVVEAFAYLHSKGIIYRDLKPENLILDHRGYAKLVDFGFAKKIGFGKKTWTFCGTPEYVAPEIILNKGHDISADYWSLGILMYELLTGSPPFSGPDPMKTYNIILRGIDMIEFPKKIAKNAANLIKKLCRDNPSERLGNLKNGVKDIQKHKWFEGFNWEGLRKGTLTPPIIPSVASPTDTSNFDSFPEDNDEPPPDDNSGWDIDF
Procedure, shortened: (§1)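 Radiometric filter-binding format: cationic substrate takes up labeled phosphate from ATP unless the inhibitor peptide blocks the kinase. Substrate bound to an anionic filter, scintillation-counted, normalized to 100% activity control. Duplicates; part of a 266-kinase selectivity panel for MK2 peptides.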

PRK2 (h) = PRK2 (h) (Homo sapiens, UniProt Q16513)
Procedure, shortened: as §1

ULK2 (h) = molecular target: T2, ULK2 (h) (Homo sapiens, UniProt Q8IYT8)
T2 sequence (Q8IYT8 1-1036): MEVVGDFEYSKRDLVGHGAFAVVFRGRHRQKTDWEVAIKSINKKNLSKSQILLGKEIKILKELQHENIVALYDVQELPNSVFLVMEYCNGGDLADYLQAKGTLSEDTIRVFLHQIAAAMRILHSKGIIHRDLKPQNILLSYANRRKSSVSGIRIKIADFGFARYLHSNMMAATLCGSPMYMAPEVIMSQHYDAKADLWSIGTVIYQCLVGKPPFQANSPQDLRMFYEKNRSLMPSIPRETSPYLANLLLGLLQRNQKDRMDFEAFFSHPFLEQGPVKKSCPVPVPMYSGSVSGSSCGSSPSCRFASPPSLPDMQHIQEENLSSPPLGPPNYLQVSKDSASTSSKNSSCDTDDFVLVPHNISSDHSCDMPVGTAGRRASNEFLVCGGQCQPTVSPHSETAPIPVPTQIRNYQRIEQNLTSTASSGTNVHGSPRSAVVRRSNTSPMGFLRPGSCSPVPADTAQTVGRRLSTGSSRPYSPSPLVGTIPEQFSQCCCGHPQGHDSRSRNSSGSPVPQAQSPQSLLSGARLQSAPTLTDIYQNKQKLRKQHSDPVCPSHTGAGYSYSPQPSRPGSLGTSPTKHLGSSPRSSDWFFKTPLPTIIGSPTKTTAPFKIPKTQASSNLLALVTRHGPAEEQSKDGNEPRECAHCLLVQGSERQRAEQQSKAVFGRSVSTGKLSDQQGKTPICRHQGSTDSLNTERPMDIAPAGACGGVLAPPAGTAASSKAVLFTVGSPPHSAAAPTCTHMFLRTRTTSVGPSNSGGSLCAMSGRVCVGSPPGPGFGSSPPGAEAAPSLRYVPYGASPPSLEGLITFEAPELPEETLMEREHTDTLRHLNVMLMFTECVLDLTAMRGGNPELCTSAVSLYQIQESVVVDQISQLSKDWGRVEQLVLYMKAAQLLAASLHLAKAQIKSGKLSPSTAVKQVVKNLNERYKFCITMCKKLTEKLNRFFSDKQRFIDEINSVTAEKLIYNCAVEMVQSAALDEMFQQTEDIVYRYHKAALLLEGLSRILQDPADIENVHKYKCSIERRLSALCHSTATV
Procedure, shortened: as §1

PKCμ (h) = molecular target: T3, PKCμ (h) (Homo sapiens, UniProt Q15139)
T3 sequence (Q15139 1-912): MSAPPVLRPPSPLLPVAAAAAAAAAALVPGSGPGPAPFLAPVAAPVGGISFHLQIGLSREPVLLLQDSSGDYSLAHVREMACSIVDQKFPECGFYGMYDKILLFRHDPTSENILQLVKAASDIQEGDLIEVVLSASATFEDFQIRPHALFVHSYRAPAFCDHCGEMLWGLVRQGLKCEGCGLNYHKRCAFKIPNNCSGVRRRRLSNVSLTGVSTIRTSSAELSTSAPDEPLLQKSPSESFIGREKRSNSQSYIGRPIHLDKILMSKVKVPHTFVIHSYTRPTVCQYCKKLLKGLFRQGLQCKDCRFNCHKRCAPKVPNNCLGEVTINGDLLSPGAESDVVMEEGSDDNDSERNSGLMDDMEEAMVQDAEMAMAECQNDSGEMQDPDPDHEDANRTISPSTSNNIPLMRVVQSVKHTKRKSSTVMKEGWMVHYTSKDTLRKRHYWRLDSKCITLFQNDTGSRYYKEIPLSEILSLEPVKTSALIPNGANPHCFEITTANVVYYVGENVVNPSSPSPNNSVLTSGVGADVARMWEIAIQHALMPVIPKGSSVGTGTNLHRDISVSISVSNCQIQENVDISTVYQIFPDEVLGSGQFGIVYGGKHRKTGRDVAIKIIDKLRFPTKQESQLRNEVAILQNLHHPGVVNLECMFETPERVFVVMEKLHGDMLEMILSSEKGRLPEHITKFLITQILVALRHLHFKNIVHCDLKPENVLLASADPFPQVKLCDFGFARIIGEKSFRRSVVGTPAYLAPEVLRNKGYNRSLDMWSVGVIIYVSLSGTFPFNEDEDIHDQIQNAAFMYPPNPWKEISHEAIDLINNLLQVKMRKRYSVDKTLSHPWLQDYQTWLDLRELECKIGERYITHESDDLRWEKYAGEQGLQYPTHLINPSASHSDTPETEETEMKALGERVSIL
Procedure, shortened: as §1

ROCK-II (h) = ROCK-II (h) (Homo sapiens, UniProt O75116)
Procedure, shortened: as §1

WNK2 (h) = WNK2 (h) (Homo sapiens, UniProt Q9Y3S1)
Procedure, shortened: as §1

WNK2 (h), sequence (Q9Y3S1 whole entry): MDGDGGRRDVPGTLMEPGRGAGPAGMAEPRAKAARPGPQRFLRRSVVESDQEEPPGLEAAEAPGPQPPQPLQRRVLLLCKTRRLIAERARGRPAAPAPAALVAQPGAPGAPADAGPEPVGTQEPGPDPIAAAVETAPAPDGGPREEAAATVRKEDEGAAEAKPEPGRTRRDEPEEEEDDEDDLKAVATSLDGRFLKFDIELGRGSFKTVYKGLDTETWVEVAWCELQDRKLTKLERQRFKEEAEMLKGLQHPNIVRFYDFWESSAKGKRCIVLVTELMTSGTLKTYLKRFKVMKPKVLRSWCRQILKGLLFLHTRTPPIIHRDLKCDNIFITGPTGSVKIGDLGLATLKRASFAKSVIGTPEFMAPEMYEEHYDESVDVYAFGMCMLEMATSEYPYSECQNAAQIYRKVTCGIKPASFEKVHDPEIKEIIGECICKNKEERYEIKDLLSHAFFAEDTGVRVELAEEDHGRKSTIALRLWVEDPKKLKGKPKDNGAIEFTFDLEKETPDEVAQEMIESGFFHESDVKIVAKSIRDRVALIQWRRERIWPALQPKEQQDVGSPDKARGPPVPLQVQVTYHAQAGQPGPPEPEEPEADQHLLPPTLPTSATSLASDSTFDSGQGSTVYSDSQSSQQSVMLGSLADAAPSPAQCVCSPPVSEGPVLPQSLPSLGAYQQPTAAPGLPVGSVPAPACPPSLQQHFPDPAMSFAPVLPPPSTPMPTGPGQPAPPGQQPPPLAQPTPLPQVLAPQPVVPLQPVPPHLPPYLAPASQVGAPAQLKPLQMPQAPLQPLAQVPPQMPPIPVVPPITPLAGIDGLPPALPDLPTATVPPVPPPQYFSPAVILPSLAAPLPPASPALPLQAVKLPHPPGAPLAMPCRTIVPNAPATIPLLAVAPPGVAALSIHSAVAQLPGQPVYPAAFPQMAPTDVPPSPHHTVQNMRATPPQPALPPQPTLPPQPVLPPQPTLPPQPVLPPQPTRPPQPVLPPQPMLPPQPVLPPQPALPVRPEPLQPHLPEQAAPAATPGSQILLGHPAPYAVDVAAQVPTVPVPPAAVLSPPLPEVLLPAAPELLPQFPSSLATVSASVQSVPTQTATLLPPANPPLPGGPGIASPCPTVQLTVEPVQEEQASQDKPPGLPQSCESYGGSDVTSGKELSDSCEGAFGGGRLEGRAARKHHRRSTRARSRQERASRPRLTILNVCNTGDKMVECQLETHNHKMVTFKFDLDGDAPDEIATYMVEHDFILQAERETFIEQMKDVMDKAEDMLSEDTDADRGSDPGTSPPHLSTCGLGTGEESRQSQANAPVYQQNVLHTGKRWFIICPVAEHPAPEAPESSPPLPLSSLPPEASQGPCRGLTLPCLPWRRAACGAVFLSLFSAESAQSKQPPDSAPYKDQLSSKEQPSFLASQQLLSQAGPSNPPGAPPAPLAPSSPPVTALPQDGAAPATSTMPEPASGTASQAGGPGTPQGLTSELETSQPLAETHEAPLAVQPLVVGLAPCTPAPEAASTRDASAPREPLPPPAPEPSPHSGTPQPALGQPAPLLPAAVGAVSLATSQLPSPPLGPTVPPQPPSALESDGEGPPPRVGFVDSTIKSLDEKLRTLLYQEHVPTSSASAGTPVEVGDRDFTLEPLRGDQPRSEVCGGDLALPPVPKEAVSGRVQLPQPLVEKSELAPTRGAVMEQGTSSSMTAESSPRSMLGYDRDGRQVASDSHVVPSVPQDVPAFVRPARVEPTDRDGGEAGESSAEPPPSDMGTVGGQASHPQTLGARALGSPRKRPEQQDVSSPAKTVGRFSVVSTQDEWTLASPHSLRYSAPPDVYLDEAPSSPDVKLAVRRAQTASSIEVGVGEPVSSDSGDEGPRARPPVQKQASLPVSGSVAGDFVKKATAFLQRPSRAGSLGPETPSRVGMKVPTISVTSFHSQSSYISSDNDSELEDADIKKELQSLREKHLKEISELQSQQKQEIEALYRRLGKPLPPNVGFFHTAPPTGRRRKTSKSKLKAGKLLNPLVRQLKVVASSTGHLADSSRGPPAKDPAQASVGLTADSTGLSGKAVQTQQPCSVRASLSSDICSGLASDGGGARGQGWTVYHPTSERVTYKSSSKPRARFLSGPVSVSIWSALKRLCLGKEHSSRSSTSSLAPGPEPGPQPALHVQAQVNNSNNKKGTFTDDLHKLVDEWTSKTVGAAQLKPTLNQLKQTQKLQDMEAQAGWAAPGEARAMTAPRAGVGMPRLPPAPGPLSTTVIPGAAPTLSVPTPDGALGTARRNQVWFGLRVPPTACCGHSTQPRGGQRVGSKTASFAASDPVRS
ROCK-II (h), sequence (O75116 whole entry): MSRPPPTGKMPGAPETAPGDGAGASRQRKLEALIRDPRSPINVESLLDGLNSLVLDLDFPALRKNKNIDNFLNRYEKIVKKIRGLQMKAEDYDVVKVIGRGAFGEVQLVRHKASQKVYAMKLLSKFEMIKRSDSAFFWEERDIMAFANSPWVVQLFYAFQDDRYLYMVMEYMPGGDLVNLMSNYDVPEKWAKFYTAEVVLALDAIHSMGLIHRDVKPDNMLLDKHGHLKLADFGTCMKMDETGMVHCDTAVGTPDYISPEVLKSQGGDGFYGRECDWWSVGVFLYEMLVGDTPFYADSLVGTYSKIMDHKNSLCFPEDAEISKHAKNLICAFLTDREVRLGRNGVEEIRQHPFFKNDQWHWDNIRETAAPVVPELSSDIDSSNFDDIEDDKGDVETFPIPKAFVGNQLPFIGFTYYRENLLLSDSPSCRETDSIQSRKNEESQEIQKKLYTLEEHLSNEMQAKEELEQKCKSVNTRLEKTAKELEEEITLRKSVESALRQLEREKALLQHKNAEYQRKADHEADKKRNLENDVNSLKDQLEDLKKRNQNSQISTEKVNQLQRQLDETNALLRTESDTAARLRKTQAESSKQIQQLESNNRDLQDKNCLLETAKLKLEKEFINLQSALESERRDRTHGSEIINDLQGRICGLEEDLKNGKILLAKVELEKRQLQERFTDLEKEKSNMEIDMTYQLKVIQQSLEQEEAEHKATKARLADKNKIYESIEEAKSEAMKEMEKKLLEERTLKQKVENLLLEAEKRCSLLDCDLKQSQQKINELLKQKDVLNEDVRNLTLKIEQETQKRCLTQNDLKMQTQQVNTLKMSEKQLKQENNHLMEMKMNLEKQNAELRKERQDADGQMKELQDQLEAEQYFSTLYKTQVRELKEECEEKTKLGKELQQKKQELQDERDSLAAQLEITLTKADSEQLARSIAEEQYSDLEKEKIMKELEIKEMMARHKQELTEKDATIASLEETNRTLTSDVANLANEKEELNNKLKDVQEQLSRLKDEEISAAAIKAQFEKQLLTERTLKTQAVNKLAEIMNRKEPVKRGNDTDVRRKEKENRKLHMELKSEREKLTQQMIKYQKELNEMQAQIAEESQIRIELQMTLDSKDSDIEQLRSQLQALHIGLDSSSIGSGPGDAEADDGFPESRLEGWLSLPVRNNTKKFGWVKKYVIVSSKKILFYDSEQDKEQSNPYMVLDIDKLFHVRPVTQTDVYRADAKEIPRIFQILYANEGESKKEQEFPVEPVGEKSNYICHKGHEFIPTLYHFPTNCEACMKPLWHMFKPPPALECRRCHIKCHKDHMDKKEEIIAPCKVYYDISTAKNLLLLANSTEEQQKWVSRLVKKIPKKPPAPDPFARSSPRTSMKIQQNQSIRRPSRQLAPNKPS
PRK2 (h), sequence (Q16513 whole entry): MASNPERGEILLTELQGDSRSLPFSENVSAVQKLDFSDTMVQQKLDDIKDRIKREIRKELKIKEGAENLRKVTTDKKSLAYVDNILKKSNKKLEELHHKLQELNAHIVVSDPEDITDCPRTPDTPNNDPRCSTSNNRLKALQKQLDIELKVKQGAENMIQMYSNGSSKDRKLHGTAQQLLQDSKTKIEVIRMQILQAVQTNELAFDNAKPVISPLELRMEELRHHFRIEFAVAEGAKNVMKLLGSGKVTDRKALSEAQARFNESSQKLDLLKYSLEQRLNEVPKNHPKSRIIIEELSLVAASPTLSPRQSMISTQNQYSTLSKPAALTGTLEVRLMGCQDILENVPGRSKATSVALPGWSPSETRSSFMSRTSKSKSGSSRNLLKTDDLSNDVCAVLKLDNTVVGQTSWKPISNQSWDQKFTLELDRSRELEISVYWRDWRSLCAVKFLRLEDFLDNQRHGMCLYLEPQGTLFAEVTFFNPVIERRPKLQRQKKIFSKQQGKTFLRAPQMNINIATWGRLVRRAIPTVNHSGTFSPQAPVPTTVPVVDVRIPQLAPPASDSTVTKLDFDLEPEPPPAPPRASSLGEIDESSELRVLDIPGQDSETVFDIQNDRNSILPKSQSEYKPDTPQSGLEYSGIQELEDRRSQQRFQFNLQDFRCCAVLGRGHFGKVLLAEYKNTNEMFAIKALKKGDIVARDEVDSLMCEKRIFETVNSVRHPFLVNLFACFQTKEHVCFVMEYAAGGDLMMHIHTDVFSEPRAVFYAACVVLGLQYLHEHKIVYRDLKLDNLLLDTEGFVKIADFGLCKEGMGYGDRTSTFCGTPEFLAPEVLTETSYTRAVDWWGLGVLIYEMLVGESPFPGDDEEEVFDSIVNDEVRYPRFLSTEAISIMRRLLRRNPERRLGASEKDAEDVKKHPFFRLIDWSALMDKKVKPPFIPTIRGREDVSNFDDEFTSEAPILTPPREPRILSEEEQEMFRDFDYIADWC

Row | Sequence | % activity (PKG1α (h)) [%] | % activity (PRK2 (h)) [%] | % activity (ULK2 (h)) [%] | % activity (PKCμ (h)) [%] | % activity (ROCK-II (h)) [%] | % activity (WNK2 (h)) [%]
1 | FAKLAARLYRKALARQLGVAA [MMI-0300] | 64 | 33 | 122 | 22 | 74 | 64
2 | HRRIKAWLKKIKALARQLGVAA (Mammalian) [MMI-0500] | 25 | 7 | 124 | 10 | 2 | 8
3 | KAFAKLAARLYRKALARQLGVAA [MMI-0400] | 58 | 27 | 131 | 14 | 77 | 54
4 | YARAAARQARAKALNRQLGVA (Mammalian) [MMI-0200] | 70 | 74 | 132 | 73 | 85 | 94
